Results on one molecule are retold here after article PMC4022514, “The C-Terminal Domain from S. cerevisiae Pat1 Displays Two Conserved Regions Involved in Decapping Factor Recruitment” (PLoS ONE, 2014).

Some results are limits rather than exact numbers.

Assay [1] concerns the target T1, Edc3 (two-hybrid fusion to the DNA binding domain) (S. cerevisiae, UniProt P39998 1-551).
T1 construct: Edc3, S. cerevisiae; The bridge between Pat1 and Rps28 in the wild-type host strain is the strain's endogenous Edc3, the same protein without the fusion; source: yeast two-hybrid fusion
T1 sequence (looked up): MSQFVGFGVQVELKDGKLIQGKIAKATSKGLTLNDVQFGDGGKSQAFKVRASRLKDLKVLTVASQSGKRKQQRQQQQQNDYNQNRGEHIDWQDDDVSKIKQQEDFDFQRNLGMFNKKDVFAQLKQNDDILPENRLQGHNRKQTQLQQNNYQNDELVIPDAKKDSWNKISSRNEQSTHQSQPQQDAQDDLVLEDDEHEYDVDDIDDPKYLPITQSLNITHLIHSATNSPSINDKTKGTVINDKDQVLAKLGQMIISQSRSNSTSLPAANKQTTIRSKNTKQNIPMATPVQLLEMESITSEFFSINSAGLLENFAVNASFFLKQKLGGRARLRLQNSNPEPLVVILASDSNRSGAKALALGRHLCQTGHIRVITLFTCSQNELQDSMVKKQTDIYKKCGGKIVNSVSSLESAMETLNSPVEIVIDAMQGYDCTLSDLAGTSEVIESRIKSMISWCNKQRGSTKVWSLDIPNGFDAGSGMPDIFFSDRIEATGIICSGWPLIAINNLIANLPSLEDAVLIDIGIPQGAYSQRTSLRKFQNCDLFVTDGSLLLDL
The experiment in a line: two-hybrid; yeast strain BSY2475, isogenic to MAV203 but lacking Edc3 (Δedc3); β-galactosidase activity by Beta-Glo; Pat1 fused to Gal4AD. The conditions noted are these: partners not purified.

Assay [2] has as its target T2, Scd6 (two-hybrid fusion) (S. cerevisiae, UniProt P45978 1-349).
T2 construct: Scd6, S. cerevisiae; source: yeast two-hybrid fusion
T2 sequence (looked up): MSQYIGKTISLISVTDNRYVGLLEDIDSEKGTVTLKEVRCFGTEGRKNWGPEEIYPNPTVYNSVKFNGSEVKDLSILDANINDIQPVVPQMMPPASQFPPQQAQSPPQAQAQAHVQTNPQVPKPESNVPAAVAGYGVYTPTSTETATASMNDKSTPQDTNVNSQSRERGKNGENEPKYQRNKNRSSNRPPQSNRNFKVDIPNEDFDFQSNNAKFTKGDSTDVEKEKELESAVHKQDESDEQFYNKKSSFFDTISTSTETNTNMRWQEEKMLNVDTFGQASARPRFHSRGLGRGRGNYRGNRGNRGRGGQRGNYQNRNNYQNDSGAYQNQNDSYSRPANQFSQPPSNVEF
The description is as above. The conditions noted are these: partners not purified.

B1: full-length ScPat1 (two-hybrid fusion to Gal4AD) (natural protein, S. cerevisiae, UniProt P25644 1-796, looked up)
chain: MSFFGLENSGNARDGPLDFEESYKGYGEHELEENDYLNDETFGDNVQVGTDFDFGNPHSSGSSGNAIGGNGVGATARSYVAATAEGISGPRTDGTAAAGPLDLKPMESLWSTAPPPAMAPSPQSTMAPAPAPQQMAPLQPILSMQDLERQQRQMQQQFMNFHAMGHPQGLPQGPPQQQFPMQPASGQPGPSQFAPPPPPPGVNVNMNQMPMGPVQVPVQASPSPIGMSNTPSPGPVVGATKMPLQSGRRSKRDLSPEEQRRLQIRHAKVEKILKYSGLMTPRDKDFITRYQLSQIVTEDPYNEDFYFQVYKIIQRGGITSESNKGLIARAYLEHSGHRLGGRYKRTDIALQRMQSQVEKAVTVAKERPSKLKDQQAAAGNSSQDNKQANTVLGKISSTLNSKNPRRQLQIPRQQPSDPDALKDVTDSLTNVDLASSGSSSTGSSAAAVASKQRRRSSYAFNNGNGATNLNKSGGKKFILELIETVYEEILDLEANLRNGQQTDSTAMWEALHIDDSSYDVNPFISMLSFDKGIKIMPRIFNFLDKQQKLKILQKIFNELSHLQIIILSSYKTTPKPTLTQLKKVDLFQMIILKIIVSFLSNNSNFIEIMGLLLQLIRNNNVSFLTTSKIGLNLITILISRAALIKQDSSRSNILSSPEISTWNEIYDKLFTSLESKIQLIFPPREYNDHIMRLQNDKFMDEAYIWQFLASLALSGKLNHQRIIIDEVRDEIFATINEAETLQKKEKELSVLPQRSQELDTELKSIIYNKEKLYQDLNLFLNVMGLVYRDGEISELK
notes: Pat1, S. cerevisiae, full-length; pBS2374 is named only as the template for the Gal4AD-Pat1ΔC68 plasmid pBS4907; also called wild type ScPat1; full-length Pat1 protein; source: yeast two-hybrid fusion
As for B1, the “fold two-hybrid signal, Δedc3 strain over wild type strain” value in assay [1] is > 60 fold; in assay [2] it was 3 fold.
